Experimental data reported in IntAct's records for PubMed 26068852.

B1: TRAF-interacting protein with FHA domain-containing protein A (Homo sapiens), Q96CG3 (parent)
chain: MTSFEDADTEETVTCLQMTVYHPGQLQCGIFQSISFNREKLPSSEVVKFGRNSNICHYTFQDKQVSRVQFSLQLFKKFNSSVLSFEIKNMSKKTNLIVDSRELGYLNKMDLPYRCMVRFGEYQFLMEKEDGESLEFFETQFILSPRSLLQENNWPPHRPIPEYGTYSLCSSQSSSPTEMDENES
partner: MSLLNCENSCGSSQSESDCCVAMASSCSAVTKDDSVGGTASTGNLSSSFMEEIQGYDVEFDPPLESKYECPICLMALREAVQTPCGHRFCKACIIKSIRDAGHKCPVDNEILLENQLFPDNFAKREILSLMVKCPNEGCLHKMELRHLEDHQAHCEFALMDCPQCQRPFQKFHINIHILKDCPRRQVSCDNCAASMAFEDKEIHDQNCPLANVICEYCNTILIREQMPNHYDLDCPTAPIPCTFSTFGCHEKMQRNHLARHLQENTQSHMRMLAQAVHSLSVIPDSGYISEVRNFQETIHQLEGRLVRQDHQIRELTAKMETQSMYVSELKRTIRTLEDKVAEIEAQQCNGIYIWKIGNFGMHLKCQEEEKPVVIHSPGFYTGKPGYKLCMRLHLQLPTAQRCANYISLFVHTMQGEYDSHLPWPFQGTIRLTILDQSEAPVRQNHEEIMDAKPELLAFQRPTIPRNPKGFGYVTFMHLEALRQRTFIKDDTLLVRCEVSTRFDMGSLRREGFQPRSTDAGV

Variants of: B1
Settings: with traf6_human TRAF6, Q9Y4K3

Effect of a mutation on the interaction, disrupting interaction strength:
MTSFEDADTEETVTCLQMTVYHPGQLQCGIFQSISFNREKLPSSEVVKFERNSNICHYTFQDKQVARVQFSLQLFKKFNSSVLSFEIKNMSKKTNLIVDSRELGYLNKMDLPYRCMVRFGEYQFLMEKEDGESLEFFETQFILSPRSLLQENNWPPHRPIPEYGTYSLCSSQSSSPTEMDENES
MTSFEDADTEETVTCLQMTVYHPGQLQCGIFQSISFNREKLPSSEVVKFGRNSNICHYTFQDKQVSRVQFSLQLFKKFNSSVLSFEIKNMSKKTNLIVDSRELGYLNKMDLPYRCMVRFGEYQFLMEKEDGESLEFFETQFILSPRSLLQENNWPPHRPIPEYGTYSLCSSQSSSPTAMDENES
MTSFEDADAEETVTCLQMTVYHPGQLQCGIFQSISFNREKLPSSEVVKFGRNSNICHYTFQDKQVSRVQFSLQLFKKFNSSVLSFEIKNMSKKTNLIVDSRELGYLNKMDLPYRCMVRFGEYQFLMEKEDGESLEFFETQFILSPRSLLQENNWPPHRPIPEYGTYSLCSSQSSSPTEMDENES
